Measured values from patent US20210301005A1 (Genentech, published 2021).
Where a chain is given by its changes, count along the chain named.

B1: h2A10.v2.7 (antibody, human IgG1, kappa, N297G, V domains shown)
VH: EVQLLESGGGLVQPGGSLRLSCAASGFDFNSYGMSWVRQAPGKGLELVADIVSKTYNYTTYYSDSVKDRFTISRDNSKSTVYLQMNSLRAEDTAVYYCTVAPGGSFDYWGQGTLVTVSS
VL: DIQLTQSPSSLSASVGDRVTITCRASQSVSISRFNLMHWYQHKPGKQPKLLIYRASNLASGIPSRFSGSGSGTDFTLTISSLQPEDFATYYCQHSRESPWTFGGGTKVEIKR
B2: h2A10.v2.9 (antibody, human IgG1, kappa, N297G, V domains shown)
VH: B1 VH with N76D, V81L
VL: B1 VL
B3: h2A10.v2.8 (antibody, human IgG1, kappa, N297G, V domains shown)
VH: B1 VH with N76D, S79N
VL: B1 VL
B4: h4A11.v4 (antibody, human IgG1, kappa, N297G, V domains shown)
VH: EQQLQESGPGLVKPSETLSLTCTVTGFSLSSYTVNWVRQPAGKGLEWIGYISYGGSAYYASWANGRFTISKDSSKNQVSLKLSSVTAADTAVYFCARHMQVGGAPTGSMAAFDPWGPGTLVTVSS
VL: DAQLTQSPSSLSASVGDRVTITCQSSQSVYNNNYLSWFQQKPGKPPKLLIYGASTLTSGVPSRFSGSGSGTDFTLTISSLQPEDFATYYCAGGYSGSSDKYAFGGGTKVEIKR
B5: h4A11.v8 (antibody, V domains shown)
VH: B4 VH
VL: DAVLTQTPLSSPVTLGQPASISCQSSQSVYNNNYLSWFQQRPGQPPRLLIYGASTLTSGVPDRFSGSGAGTDFTLKISRVEAEDVGVYYCAGGYSGSSDKYAFGGGTKVEIK
B6: h4A11.v1 (antibody, human IgG1, kappa, N297G, V domains shown)
VH: EQQLVESGGGLVQPGGSLRLSCAVSGFSLSSYTVNWVRQAPGKGLEWIGYISYGGSAYYASWANGRFTISKDSAKNSVYLQMNSLRAEDTAVYFCARHMQVGGAPTGSMAAFDPWGPGTLVTVSS
VL: DAVLTQSPDSLAVSLGERATINCQSSQSVYNNNYLSWFQQKPGQPPKLLIYGASTLTSGVPDRFSGSGSGTDFTLTISSLQAEDVAVYYCAGGYSGSSDKYAFGGGTKVEIKR
B7: h4A11.v3 (antibody, human IgG1, kappa, N297G, V domains shown)
VH: B4 VH
VL: B6 VL
B8: h4A11.v6 (antibody, human IgG1, kappa, N297G, V domains shown)
VH: B6 VH
VL: DAVLTQTPLSSPVTLGQPASISCQSSQSVYNNNYLSWFQQRPGQPPRLLIYGASTLTSGVPDRFSGSGAGTDFTLKISRVEAEDVGVYYCAGGYSGSSDKYAFGGGTKVEIKR
B9: h4A11.v2 (antibody, human IgG1, kappa, N297G, V domains shown)
VH: B6 VH
VL: B4 VL
B10: h4A11.v5 (antibody, human IgG1, kappa, N297G, V domains shown)
VH: B6 VH
VL: EAVLTQSPGTLSLSPGERATLSCQSSQSVYNNNYLSWFQQKPGQPPRLLIYGASTLTSGVPDRFSGSGSGTDFTLTISRLEPEDFAVYYCAGGYSGSSDKYAFGGGTKVEIKR
B11: h4A11.v7.19 (antibody, human IgG1, kappa, N297G, V domains shown)
VH: EVQLQESGPGLVKPSETLSLTCTVTGFSLSSYTVNWIRQPAGKGLEWIGYISYGGSAYYASWANGRVTISKDTSQVSLKLSSVTAADTAVYFCARHMQVGGAPTGSMAAFDPWGQGTLVTVSS
VL: B10 VL with A2I, P45A, V60I
B12: h4A11.v7.18 (antibody, human IgG1, kappa, N297G, V domains shown)
VH: B4 VH with Q2V, V37I, F67V, S73T, P117Q
VL: B10 VL with A2I, P45A, V60I
B13: h4A11.v7.17 (antibody, human IgG1, kappa, N297G, V domains shown)
VH: B4 VH with Q2V, V37I, F67V, S73T, F94Y, P117Q
VL: B10 VL with A2I, P45A, V60I
B14: h4A11.v7.16 (antibody, human IgG1, kappa, N297G, V domains shown)
VH: B4 VH with Q2V, V37I, F67V, S73T, V78F, P117Q
VL: B10 VL with A2I, P45A, V60I

target: T1, human TGFβ2, mature receptor-binding domain (human, UniProt P09858 303-414 (pig entry), The mature TGFβ2 is a disulfide-linked homodimer of this 112-residue chain. The 4A11 epitope spans both monomers (p-1207).); assay: BIAcore T200
T1 construct: Peprotech; also called TGFb2
T1 sequence: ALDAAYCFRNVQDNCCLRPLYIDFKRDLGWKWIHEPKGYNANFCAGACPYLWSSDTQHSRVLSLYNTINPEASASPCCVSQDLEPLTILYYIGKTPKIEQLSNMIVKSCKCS
Description: (§1) For binding affinity determinations of all humanized 2A10 antibodies, Surface Plasmon Resonance (SPR) measurement with a BIAcore™-T200 instrument was used. Briefly, series S CM5 biosensor chip with protein A was first applied to capture each humanized 2A10 variant to achieve approximately 100 response units (RU) on each flow cell, following by injection of 3-fold serial dilutions of human TGFβ1, TGFβ2 or TGFβ3 (0.02 nM to 5 nM) in HBS-EP buffer (0.01M HEPES pH 7.4, 0.15M NaCl, 3 mM EDTA and 0.05% v/v surfactant P20) at 25° C. with a flow rate of 50 μl/min for kinetics measurement. Association rates (ko.) and dissociation rates (koff) were calculated using a simple one-to-one Langmuir binding model (BIAcore T200 evaluation software version 2.0) to determine the equilibrium dissociation constant (KD), which was calculated as the ratio koff/kₒₙ.

Q: With B1 as the binder, how does the Kd read?
A: 0.921 nM

Q: For B2, which Kd is on record?
A: 0.768 nM

Q: With B3 as the binder, how does the Kd read?
A: 0.365 nM

target: T2, human TGFβ3, mature dimeric form (human, UniProt P10600 301-412); assay: BIAcore T200
T2 construct: Peprotech, expressed in E. coli; also called TGFb3
T2 sequence: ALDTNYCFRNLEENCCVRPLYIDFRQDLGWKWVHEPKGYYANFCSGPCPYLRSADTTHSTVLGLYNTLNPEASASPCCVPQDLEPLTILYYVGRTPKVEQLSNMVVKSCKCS
Description: as §1

Q: B1 was tested. Which Kd did it give?
A: 0.0032 nM

Q: How did the Kd turn out when B2 was run?
A: 0.0007 nM

Q: For B3, which Kd is on record?
A: 0.0012 nM

target: T1, human TGFβ2, mature receptor-binding …; assay: BIAcore T200; remark: another data set of the same source
Description: as §1
(§2) Binding affinity determinations of all humanized 4A11 antibodies were performed using SPR measurement with a BIAcore™-T200 instrument, as described above in Example 6 ([…]).

Q: With B4 as the binder, how does the Kd read?
A: 0.01 nM

Q: B5 was tested. Which Kd did it give?
A: 0.0082 nM

Q: B6 was tested. Which Kd did it give?
A: 0.0046 nM

Q: For B7, which Kd is on record?
A: 0.0096 nM

Q: How did the Kd turn out when B8 was run?
A: 0.0084 nM

Q: B9 was tested. Which Kd did it give?
A: 0.0014 nM

Q: Which Kd does the source give for B10 here?
A: 0.0121 nM

target: T2, human TGFβ3, mature dimeric form; assay: BIAcore T200; remark: another data set of the same source
Description: as §1, §2

Q: How did the Kd turn out when B4 was run?
A: 0.0101 nM

Q: Which Kd does the source give for B5 here?
A: 0.0141 nM

Q: How did the Kd turn out when B6 was run?
A: 0.0144 nM

Q: For B7, which Kd is on record?
A: 0.0121 nM

Q: B8 was tested. Which Kd did it give?
A: 0.0125 nM

Q: B9 was tested. Which Kd did it give?
A: 0.0133 nM

Q: For B10, which Kd is on record?
A: 0.0139 nM

target: T1, human TGFβ2, mature receptor-binding …; assay: BIAcore T200; remark: another data set of the same source
Description: as §1, §2

Q: B11 was tested. Which Kd did it give?
A: 0.001 nM

Q: Which Kd does the source give for B12 here?
A: 0.0011 nM

Q: B13 was tested. Which Kd did it give?
A: 0.0013 nM

Q: For B14, which Kd is on record?
A: 0.0049 nM

target: T2, human TGFβ3, mature dimeric form; assay: BIAcore T200; remark: another data set of the same source
Description: as §1, §2

Q: How did the Kd turn out when B11 was run?
A: ≤ 0.0013 nM

Q: How did the Kd turn out when B12 was run?
A: 0.0046 nM

Q: For B13, which Kd is on record?
A: 0.0032 nM

Q: Which Kd does the source give for B14 here?
A: 0.0066 nM

target: T2, human TGFβ3, mature dimeric form; assay: cell-based or functional assay

Q: How did the “fold loss of TGFβ3 blocking against h2A10.v2” value turn out when B1 was run?
A: > 10 fold

target: T3, human TGFβ1, mature receptor-binding domain (human, UniProt P01137 279-390); assay: cell-based or functional assay
T3 sequence (P01137 279-390 limits assumed): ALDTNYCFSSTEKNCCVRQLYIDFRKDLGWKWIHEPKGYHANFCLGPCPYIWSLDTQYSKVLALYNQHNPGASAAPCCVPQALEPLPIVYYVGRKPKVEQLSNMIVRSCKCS

Q: For B1, which “HEKBlue TGFβ blocking IC50” value is on record?
A: > 200 nM

Q: B2 was tested. Which “HEKBlue TGFβ blocking IC50” value did it give?
A: > 200 nM

Q: For B3, which “HEKBlue TGFβ blocking IC50” value is on record?
A: > 200 nM

target: T1, human TGFβ2, mature receptor-binding …; assay: cell-based or functional assay

Q: B1 was tested. Which “HEKBlue TGFβ blocking IC50” value did it give?
A: > 200 nM

Q: How did the “HEKBlue TGFβ blocking IC50” value turn out when B2 was run?
A: > 200 nM

Q: With B3 as the binder, how does the “HEKBlue TGFβ blocking IC50” value read?
A: > 200 nM

target: T2, human TGFβ3, mature dimeric form; assay: cell-based or functional assay; remark: another data set of the same source

Q: How did the “HEKBlue TGFβ blocking IC50” value turn out when B1 was run?
A: 0.12 nM

Q: B2 was tested. Which “HEKBlue TGFβ blocking IC50” value did it give?
A: 0.01 nM

Q: B3 was tested. Which “HEKBlue TGFβ blocking IC50” value did it give?
A: 0.01 nM

target: T3, human TGFβ1, mature receptor-binding …; assay: cell-based or functional assay; remark: another data set of the same source

Q: With B4 as the binder, how does the “HEKBlue TGFβ blocking IC50” value read?
A: > 200 nM

Q: For B5, which “HEKBlue TGFβ blocking IC50” value is on record?
A: > 200 nM

Q: B6 was tested. Which “HEKBlue TGFβ blocking IC50” value did it give?
A: > 200 nM

Q: B7 was tested. Which “HEKBlue TGFβ blocking IC50” value did it give?
A: > 200 nM

Q: B8 was tested. Which “HEKBlue TGFβ blocking IC50” value did it give?
A: > 200 nM

Q: How did the “HEKBlue TGFβ blocking IC50” value turn out when B9 was run?
A: > 200 nM

Q: With B10 as the binder, how does the “HEKBlue TGFβ blocking IC50” value read?
A: > 200 nM

target: T1, human TGFβ2, mature receptor-binding …; assay: cell-based or functional assay; remark: another data set of the same source

Q: With B4 as the binder, how does the “HEKBlue TGFβ blocking IC50” value read?
A: 1.9 nM

Q: Which “HEKBlue TGFβ blocking IC50” value does the source give for B5 here?
A: > 200 nM

Q: B6 was tested. Which “HEKBlue TGFβ blocking IC50” value did it give?
A: > 200 nM

Q: How did the “HEKBlue TGFβ blocking IC50” value turn out when B7 was run?
A: 3.9 nM

Q: B8 was tested. Which “HEKBlue TGFβ blocking IC50” value did it give?
A: > 200 nM

Q: How did the “HEKBlue TGFβ blocking IC50” value turn out when B9 was run?
A: > 200 nM

Q: For B10, which “HEKBlue TGFβ blocking IC50” value is on record?
A: > 200 nM

target: T2, human TGFβ3, mature dimeric form; assay: cell-based or functional assay; remark: another data set of the same source

Q: Which “HEKBlue TGFβ blocking IC50” value does the source give for B4 here?
A: 0.08 nM

Q: How did the “HEKBlue TGFβ blocking IC50” value turn out when B5 was run?
A: 0.66 nM

Q: How did the “HEKBlue TGFβ blocking IC50” value turn out when B6 was run?
A: > 200 nM

Q: Which “HEKBlue TGFβ blocking IC50” value does the source give for B7 here?
A: 0.23 nM

Q: For B8, which “HEKBlue TGFβ blocking IC50” value is on record?
A: 6.7 nM

Q: How did the “HEKBlue TGFβ blocking IC50” value turn out when B9 was run?
A: > 200 nM

Q: For B10, which “HEKBlue TGFβ blocking IC50” value is on record?
A: 1.4 nM

target: T3, human TGFβ1, mature receptor-binding …; assay: cell-based or functional assay; remark: another data set of the same source

Q: B11 was tested. Which “HEKBlue TGFβ blocking IC50” value did it give?
A: > 200 nM

Q: How did the “HEKBlue TGFβ blocking IC50” value turn out when B12 was run?
A: > 200 nM

Q: For B13, which “HEKBlue TGFβ blocking IC50” value is on record?
A: > 200 nM

Q: For B14, which “HEKBlue TGFβ blocking IC50” value is on record?
A: > 200 nM

target: T1, human TGFβ2, mature receptor-binding …; assay: cell-based or functional assay; remark: another data set of the same source

Q: How did the “HEKBlue TGFβ blocking IC50” value turn out when B11 was run?
A: 0.05 nM

Q: With B12 as the binder, how does the “HEKBlue TGFβ blocking IC50” value read?
A: 0.09 nM

Q: B13 was tested. Which “HEKBlue TGFβ blocking IC50” value did it give?
A: 0.16 nM

Q: For B14, which “HEKBlue TGFβ blocking IC50” value is on record?
A: 0.09 nM

target: T2, human TGFβ3, mature dimeric form; assay: cell-based or functional assay; remark: another data set of the same source

Q: With B11 as the binder, how does the “HEKBlue TGFβ blocking IC50” value read?
A: 0.09 nM

Q: B12 was tested. Which “HEKBlue TGFβ blocking IC50” value did it give?
A: 0.11 nM

Q: Which “HEKBlue TGFβ blocking IC50” value does the source give for B13 here?
A: 0.17 nM

Q: With B14 as the binder, how does the “HEKBlue TGFβ blocking IC50” value read?
A: 0.13 nM
